Laboratory results reported in publication PMC11933685 (Nature Communications, 2025).

Biological target: T1, recombinant mouse neuropilin-1 (C-6His, #C11R; NRP-1) (mouse, UniProt P97333 22-856)
T1 sequence (looked up): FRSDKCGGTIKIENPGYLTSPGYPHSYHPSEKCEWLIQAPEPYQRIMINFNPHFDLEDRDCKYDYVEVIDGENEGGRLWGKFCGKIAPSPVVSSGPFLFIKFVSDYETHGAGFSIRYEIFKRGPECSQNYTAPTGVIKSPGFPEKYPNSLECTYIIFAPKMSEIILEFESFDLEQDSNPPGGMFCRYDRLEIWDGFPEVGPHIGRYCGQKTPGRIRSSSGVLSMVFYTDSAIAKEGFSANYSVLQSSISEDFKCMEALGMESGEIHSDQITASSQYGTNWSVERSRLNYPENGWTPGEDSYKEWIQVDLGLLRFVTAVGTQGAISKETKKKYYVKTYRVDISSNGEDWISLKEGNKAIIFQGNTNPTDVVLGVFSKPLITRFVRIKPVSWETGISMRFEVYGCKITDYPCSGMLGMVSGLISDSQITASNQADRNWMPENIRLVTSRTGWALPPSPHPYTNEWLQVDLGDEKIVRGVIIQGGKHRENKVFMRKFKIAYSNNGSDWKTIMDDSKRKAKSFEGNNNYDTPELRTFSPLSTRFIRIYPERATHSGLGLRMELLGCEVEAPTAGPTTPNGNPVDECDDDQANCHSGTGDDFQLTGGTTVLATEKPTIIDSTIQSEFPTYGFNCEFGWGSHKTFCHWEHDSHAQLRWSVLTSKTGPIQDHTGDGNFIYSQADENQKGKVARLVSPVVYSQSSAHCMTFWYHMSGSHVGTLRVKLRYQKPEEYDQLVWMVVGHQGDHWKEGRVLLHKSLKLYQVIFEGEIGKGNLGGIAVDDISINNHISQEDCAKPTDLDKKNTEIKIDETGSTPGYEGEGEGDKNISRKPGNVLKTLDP
Assay: SPR

Kd: 6.49 µM
Binder: CGNKRTR [cancer homing peptide (CHP, CGNKRTR), free peptide]
